From PMC9599535

Columns and labels:
[1] = target: recombinant purified multimeric HIV-1 CA tubes assembled from cross-linked CA hexamers (CA A14C/E45C) (HIV-1 (NL4-3))
[2] = target: recombinant purified multimeric HIV-1 CA tubes assembled from cross-linked CA hexamers (CA A14C/E45C) (HIV-1 (NL4-3)); test: co-sedimentation; 20 μL CA tubes (~1.4 μM) mixed with 80 μL clarified HEK293T whole-cell lysate (1.5 mg/mL) in CA binding buffer (10 mM Tris pH 7.4, 1.5 mM MgCl2, 10 mM KCl), 1 h at room temperature; 21,000 x g for 8 min at 4°C; NUP153C detected with anti-HA, signals normalized to input
[3] = target: recombinant purified multimeric HIV-1 CA tubes assembled from cross-linked CA hexamers (CA A14C/E45C) (HIV-1 (NL4-3)); test: cross-linking; disulfide cross-linking of purified CA A14C/E45C by dialysis in assembly buffer (25 mM Tris-Cl pH 8.0, 1 M NaCl) with falling β-ME at 4°C; hexamers assessed by SDS-PAGE, tubes by transmission electron microscopy

## TRIM-NUP153C-HA G1418A (from UniProt Q0PF16 1-304; P49790 896-1475)
[1]
  HIV-GFP transduction of HEK293T cells expressing TRIM-NUP153C, relative percentage of GFP-positive cells: 79%

## TRIM-NUP153C-HA T1416M (from UniProt Q0PF16 1-304; P49790 896-1475)
[1]
  HIV-GFP transduction of HEK293T cells expressing TRIM-NUP153C, relative percentage of GFP-positive cells: 86.8%

## TRIM-NUP153C-HA G1413W (from UniProt Q0PF16 1-304; P49790 896-1475)
[2]
  percent bound to CA tubes (cosedimented): 59%

## TRIM-NUP153C-HA S1412P (from UniProt Q0PF16 1-304; P49790 896-1475)
[2]
  percent bound to CA tubes (cosedimented): 63%

## TRIM-NUP153C-HA P1411M (from UniProt Q0PF16 1-304; P49790 896-1475)
[1]
  HIV-GFP transduction of HEK293T cells expressing TRIM-NUP153C, relative percentage of GFP-positive cells; restriction significantly different from wild type: 67.9%

## TRIM-NUP153C(human)-HA, wild type (from UniProt Q0PF16 1-304; P49790 896-1475)
[1]
  HIV-GFP transduction of HEK293T cells expressing TRIM-NUP153C, GFP-positive cells relative to the no TRIM control (flow cytometry): 53%
[2]
  percent detected in the pellet fraction with CA tubes: 46%

## recombinant purified multimeric HIV-1 CA tubes assembled from cross-linked CA hexamers (CA A14C/E45C) (natural protein)
[3]
  stoichiometry N: 6

## TRIM-NUP153C-HA V1414I (from UniProt Q0PF16 1-304; P49790 896-1475)
[1]
  HIV-GFP transduction of HEK293T cells expressing TRIM-NUP153C, relative percentage of GFP-positive cells: 63.9%

## TRIM-NUP153C-HA S1412M (from UniProt Q0PF16 1-304; P49790 896-1475)
[1]
  HIV-GFP transduction of HEK293T cells expressing TRIM-NUP153C, relative percentage of GFP-positive cells: 64.1%

## TRIM-NUP153C-HA F1417Y (from UniProt Q0PF16 1-304; P49790 896-1475)
[1]
  HIV-GFP transduction of HEK293T cells expressing TRIM-NUP153C, relative percentage of GFP-positive cells: 77.9%

## TRIM-NUP153C-HA F1415M (from UniProt Q0PF16 1-304; P49790 896-1475)
[1]
  HIV-GFP transduction of HEK293T cells expressing TRIM-NUP153C, relative percentage of GFP-positive cells: 52%

## TRIM-NUP153C-HA G1413M (from UniProt Q0PF16 1-304; P49790 896-1475)
[1]
  HIV-GFP transduction of HEK293T cells expressing TRIM-NUP153C, relative percentage of GFP-positive cells: 61.7%
